The source of these data is patent US20190010247A1 (MINOMIC INTERNATIONAL, published 2019).

The target in test [1] is T1, recombinant human GPC-1 (NS0-produced glypican-1 antigen) (human, UniProt P35052 24-530).
T1 construct: Bought recombinant protein; also called recombinant NS0 GPC-1; NS0-produced recombinant GPC-1 antigen
T1 sequence (looked up): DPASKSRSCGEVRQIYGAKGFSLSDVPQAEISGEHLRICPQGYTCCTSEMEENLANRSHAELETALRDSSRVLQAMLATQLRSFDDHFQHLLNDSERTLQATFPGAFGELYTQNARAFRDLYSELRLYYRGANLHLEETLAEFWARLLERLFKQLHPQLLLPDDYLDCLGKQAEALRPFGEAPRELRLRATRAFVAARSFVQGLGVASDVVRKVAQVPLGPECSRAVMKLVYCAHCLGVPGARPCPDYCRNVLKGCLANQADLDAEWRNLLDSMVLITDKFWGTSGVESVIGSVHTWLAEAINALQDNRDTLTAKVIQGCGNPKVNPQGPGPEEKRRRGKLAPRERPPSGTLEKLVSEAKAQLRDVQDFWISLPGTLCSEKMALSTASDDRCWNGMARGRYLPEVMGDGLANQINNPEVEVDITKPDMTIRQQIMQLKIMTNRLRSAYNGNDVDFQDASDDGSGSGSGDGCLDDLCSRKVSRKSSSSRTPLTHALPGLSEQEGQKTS
Description: western blot, three-antibody detection.

For test [2], the target named is T2, GPC-1 (MIL-38 antigen) expressed by human cancer cell lines DU-145, T-24, PANC-1 and MDA-MB-231 (human, UniProt P35052 24-530).
T2 construct: whole, on cells; also called GPC-1 on the cell surface
T2 sequence (looked up): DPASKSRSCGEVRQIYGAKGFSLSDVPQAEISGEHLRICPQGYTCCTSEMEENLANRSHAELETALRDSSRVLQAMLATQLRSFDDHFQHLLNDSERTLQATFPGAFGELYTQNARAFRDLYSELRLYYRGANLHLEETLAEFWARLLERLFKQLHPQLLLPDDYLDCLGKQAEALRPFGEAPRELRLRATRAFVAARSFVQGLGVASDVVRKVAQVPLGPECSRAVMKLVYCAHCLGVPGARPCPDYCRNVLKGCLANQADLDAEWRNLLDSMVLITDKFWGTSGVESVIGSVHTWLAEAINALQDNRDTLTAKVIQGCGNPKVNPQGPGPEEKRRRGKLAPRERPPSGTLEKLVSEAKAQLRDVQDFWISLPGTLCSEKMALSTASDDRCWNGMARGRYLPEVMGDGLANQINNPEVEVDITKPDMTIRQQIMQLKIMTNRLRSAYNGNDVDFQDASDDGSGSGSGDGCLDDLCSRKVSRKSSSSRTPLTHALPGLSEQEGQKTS
Description: binding to DU-145 cells, graded in Table 4.

For test [3], the target named is T1, recombinant human GPC-1 (NS0-produced …). The test is described as follows: direct binding ELISA, GPC-1 coated.
Test [4] has as its target T2, GPC-1 (MIL-38 antigen) expressed by …. Description: flow cytometry on DU-145 cells (FIG. 10). For orientation: A flow cytometer gives signals particle by particle.
For test [5], the target named is T1, recombinant human GPC-1 (NS0-produced …). Description: western blot, anti-mouse HRP detection. The procedure:
Briefly, after transfer membranes were blocked with 5% skim milk in PBS-Tween (0.1%) for 2 h at room temperature. Primary antibodies (1 μg/ml in 5% skim milk—PBS-Tween (0.1%) were applied and incubated overnight at 4° C. After washing (3×10 min PBS-Tween (0.1%)) membranes were incubated with secondary antibody (1:2000 sheep-anti-mouse HRP-labelled in 5% skim milk—PBS-Tween (0.1%)). After washing (3×10 min PBS-Tween (0.1%)) antigen was detected by using ECL detection kit (Biorad) and imaging with LAS4000 mini (GE Life Science).
For orientation: A western blot detects proteins with antibodies after separation by electrophoresis.

The target of test [6] is T2, GPC-1 (MIL-38 antigen) expressed by …. Description: flow cytometry, CY5-labelled scFv on DU-145 cells.

B1: chimeric MIL-38 antibody (mouse VH-human CH1-CH3 heavy chain, mouse VK-human CK light chain) (antibody)
heavy: not shown
light: DIQMTQSPASLSASVGETVTITCRASGNVHNYLAWYQQKQGKSPQLLVYTAKTLADGVPSRFSGSGSGTQYSLKINSLQPEDFGTYYCQHFWSNPWTFGGGTKLEIKRTVAAPSVFIFPPSDEQLKSGTASVVCLLNNFYPREAKVQWKVDNALQSGNSQESVTEQDSKDSTYSLSSTLTLSKADYEKHKVYACEVTHQGLSSPVTKSFNRGEC
notes: Human IgG1 kappa constant regions; also called chMIL-38; MIL-38 chimeric antibody
With B1, the binding result in test [1] and in test [2] was “binds” in each case.

B2: chimeric MIL-38 DOTA conjugate (antibody, human IgG1, kappa)
heavy: not shown
light: DIQMTQSPASLSASVGETVTITCRASGNVHNYLAWYQQKQGKSPQLLVYTAKTLADGVPSRFSGSGSGTQYSLKINSLQPEDFGTYYCQHFWSNPWTFGGGTKLEIKRTVAAPSVFIFPPSDEQLKSGTASVVCLLNNFYPREAKVQWKVDNALQSGNSQESVTEQDSKDSTYSLSSTLTLSKADYEKHKVYACEVTHQGLSSPVTKSFNRGEC
modifications: p-SCN-Bn-DOTA conjugated; sites not stated; p-SCN-Bn-DOTA conjugated; 4.3, 4.6 or 7.5 DOTA per MAb for 5, 10 or 20 fold excess; sites not stated
notes: also called chMIL-38 DOTA; DOTA-cMIL-38
As to B2, the binding result in test [3] and in test [4] was “binds” in each case.

B3: murine MIL-38 monoclonal antibody, AM4 population, clone 1F5 (hybridoma CBA20140026) (antibody, mouse IgG1, kappa)
heavy: QIQLVQSGPELKKPGETVKISCKASGYAFTDYSMNWVKQAPGKGLRWMGWINTETGEPTYTDDFKGRFAFSLETSASTAFLQINNLRNEDTATYFCARHYDYGGFPYWGQGTLVTVSAAKTTPPSVYPLAPGSAAQTNSMVTLGCLVKGYFPEPVTVTWNSGSLSSGVHTFPAVLQSDLYTLSSSVTVPSSTWPSETVTCNVAHPASSTKVDKKIVPRDCGCKPCICTVPEVSSVFIFPPKPKDVLTITLTPKVTCVVVDISKDDPEVQFSWFVDDVEVHTAQTQPREEQFNSTFRSVSELPIMHQDWLNGKEFKCRVNSAAFPAPIEKTISKTKGRPKAPQVYTIPPPKEQMAKDKVSLTCMITDFFPEDITVEWQWNGQPAENYKNTQPIMDTDGSYFVYSKLNVQKSNWEAGNTFTCSVLHEGLHNHHTEKSLSHSPGK
light: DIQMTQSPASLSASVGETVTITCRASGNVHNYLAWYQQKQGKSPQLLVYTAKTLADGVPSRFSGSGSGTQYSLKINSLQPEDFGTYYCQHFWSNPWTFGGGTKLEIKRADAAPTVSIFPPSSEQLTSGGASVVCFLNNFYPKDINVKWKIDGSERQNGVLNSWTDQDSKDSTYSMSSTLTLTKDEYERHNSYTCEATHKTSTSPIVKSFNRNEC
notes: Mouse IgG1 kappa; Leader 1-19 (heavy) and 1-20 (light) are stated and left out; 1F5 is named an AM4 clone; also called AM4 MIL-38; AM4 1F5
Regarding B3, the binding result in test [5] and in test [2] was “binds” in each case.

B4: scFv MIL-38 (scFv)
scFv: QIQLVQSGPELKKPGETVKISCKASGYAFTDYSMNWVKQAPGKGLRWMGWINTETGEPTYTDDFKGRFAFSLETSASTAFLQINNLRNEDTATYFCARHYDYGGFPYWGQGTLVTVSSGGGGSGGGGSGGGGSDIQMTQSPASLSASVGETVTITCRASGNVHNYLAWYQQKQGKSPQLLVYTAKTLADGVPSRFSGSGSGTQYSLKINSLQPEDFGTYYCQHFWSNPWTFGGGTKLEIKHHHHHHC
modifications: CY5 fluorophor label (site not stated)
notes: VH (20-137), gly/ser linker (138-152), VL (153-259), hexa-His tag (260-265), C-terminal cysteine (266); Leader 1-19 is stated and left out; also called MIL-38 scFv; scFv MIL-38 construct
Turning to B4, in test [6], the binding result is “binds”.
